Results on 22 sequences are retold here after the DeepSol protein solubility set.

The nature of the data set: soluble on expression in E. coli; label from the status in PepcDB or PDB records.
Take “MATLFIADLHLQTEEPAIVAGFLRFLAVEARQADALYILGDLFEAWIGDDDPNPLHREMAVAIKSLVDSGVPCFFIHGNRDFLIGKRFARESGMILLPQEKVLDLYGRNVLIMHGDTLCTDDAGYQAFRAKVHNPWVQRLFLTLPLFIRRRIAARMRAGSKAANSSKSLDIMDVNAQTVVAEMEKHRVQWLIHGHTHRPAVHELSANDQPAFRVVLGAWHHEGSMVKVTPDNVELIAFPLLEHHHHHH”: the “soluble on expression in E. coli” value was “not soluble”. For the sequence “MSRCKRCLLPHSAPGAAVDSSGICAFCRSYVPNDKNLSDQLHQQRQLDLEKALADCRGKGPYDVLVCLSGGKDSLYLLYRLKVEYKLNVLAFTTDVNIPDIAWNNIHRTIQKLDIDHLVYRPSAQFYRKLFRYLLMNQEERGAVYTVSYVYAPLFEGDALQVAMEKGIPLVLAGYSPGQPEPERMEFEFSRKLITETDWTPPGLRQSGEFTEEELARFWNPKRFPADTRFPRYLAPFHAWDYDQEAMIRKVHDLELVKRRAHGNPIYSNYPINWLLMYSDLKHFGYNPYAPEFSALIRAGKASRAYWWFMTPIVNFIIRNKLLIGRNTVDQLQQLGLQEDDLKITRPRGAYDPEID”, the “soluble on expression in E. coli” value is given as “not soluble”. For the sequence “MKVTFMNLEERKKLETKSIDELDLIGKKVCVDTCVVIDGRITELIERGKLKDATIIIPEAVVSELEYQANMGREIGYKGIEELRKLIEKASEHNIKVEYYGERPTREEIFLAKSGEIDAMIRKVAKETNSILLTSDWIQYNLAKAQGIEAYFLEAAEEEVELVLD”, the “soluble on expression in E. coli” value was “not soluble”. The same measure for “MPAFFVKAGAKKSGGGAAATRKRKNGGKSDAKSEEMAAKMSRRQKIMAATEIHSDEEDSLAGSAAASEAGSDVEYEDAHERNYREAKKLLDKIQSTTTTQEEVAEKLRDDAVARTGTQVKRVADVVELEDDLEISYKPHRLSPLCVAFSPDAKYVISCGKESSIVKFNVGTRKVVGIIKRTKKRAGVPEEPTNAHYGVIFTVAVSPDQKFIASGGFDQVVKAPKNMKILFQIWNFDSLEHIKDLSGHRGPIFSLTFQLKTNNLYSASQDRSVKMWDIDQLGLVDTMYGHQDGVQQIGVLSKQRVATVGGRDRSARLWKVEDESQLMFSGLQNCVSLDCVAMINEEHFATGSADGSIALWSFWKKRALHVRKQAHGTQNGSGRWIVALAVLPYSDLLASGSNEGELKLWKISENFRQLTPFFSYSIPGFINSINFAPNGKSIVVGAGKEHKDGRWWVDREARNQVVILPIKYTDGSDNNDVTIGDKTASGTVSGASAGGGGGIESGDESEEEEEELEEELEEEEEEIEE”: “not soluble”; for “MSSETRRKILEAARKAFSKYGYDGVSMEEIAREAGVKKALIYYYFPSKDKLFEEVWREALEELESHLFAVTEETNSYFAKIKKFLKSYVDFVLNKTVLNEIIEKEKSTVRFEEEKWSKLRERYESFIKRVEELIEEGKKQNYVYKDLDSRAAAELIVNSFGDVPKDKRLLQNIQEMILRGLLNVKTEEGR”: “not soluble”; for “MSRDTERYPVKHANSLWQIYKTVPFWKVVKNFVVIQLARYTPFVSVKNWLYRTFLKMDVGEKTAFALMVMPDIMFPERISVGRNSIIGYNTTILAHEYLIEEYRLGDVIIGDEVMVGANTTILPGVTIGDRAIIAAGTVVHKNVPPGAFVGGNPMQVIKQLEHHHHHH”: “not soluble”. The same measure for “MGHHHHHHSHMSETSFNLISEKCDILSILRDHPENRIYRRKIEELSKRFTAIRKTKGDGNCFYRALGYSYLESLLGKSREIFKFKERVLQTPNDLLAAGFEEHKFRNFFNAFYSVVELVEKDGSVSSLLKVFNDQSASDHIVQFLRLLTSAFIRNRADFFRHFIDEEMDIKDFCTHEVEPMATECDHIQITALSQALSIALQVEYVDEMDTALNHHVFPEAATPSVYLLYKTSHYNILYAADKH”: “soluble”. Turning to “MEPHKVVPLSKPHPPVVGKVTHHSIELYWDLEQKEKRQGPQEQWLRFSIEEEDPKMHSYGVIYTGYATRHVVEGLEPRTLYKFRLKVTSPSGEYEYSPVVSVATTRE”, the “soluble on expression in E. coli” value is “soluble”. With “MAHHHHHHMRVYYSNLVKDKRKCLNFIKVEKKYGGTSLLTKIGQAFNQEHLRNMKTKLDDVKKSSSPFFGTSMEGSNNIFKNFIDIFRKNNIIKDKLKINDSEKKEKEFYMFYVNSLMKYEGIFTYGKFQAFLKDLCDYFNIFSIKYKYKKKMNPQFEKLKKQYEVLNSFLPYELDNDDYKIFTQESKKYIAQAANVDIKFIDELLLFHDTLKTDRTWFYRRKVLKRNIPESFEAREMEAPYDRPVPKTYNYNIKEHSLEYDEFMKKHGRKLKFKQWNSKQHPWFRKNTSGRNRWATRPYTKQFPYLYYSRVPSHMYLSKNKPKISH” the entry was “not soluble”. As for “VRPHWRDLETLRLAAQRFGDGDLSSRTRIFRRSDIRTLAQHFNQMADRIESLISNQRELTNAVSHELRTPISRLSFELEQLNKQVDAEVRHDLIEDMRADLGELEEMVSELLTYARLEHGNVGSHREIVDAASWLDSVVADVALEAEAAGVTCEISACQVEQIRIEPRFMARAVINLLRNAIRHAHSRVEIALLDQGDSCQIRVNDDGPGIPADARQKIFEPFSRLDDSRDRSTGGFGLGLAIVHRVAQWHGGYAEALETPQGGASFRLTWERPR”, the “soluble on expression in E. coli” value is recorded as “not soluble”. With “MGSDKIHHHHHHMTQEDKKLSCTDCALLNCHKKDKTFPQFCLTTHTPEETIEGVNELYRKDDFVAKLSNAAAEIEGTYYGKLTRVEEIMAFAKRIGAKKIGIATCVGLMSEARIFAKILKAKGLESYGIICKVGAVDKTQVGVPEELKVNKGCHESLCNPVLQATLLNEEKTDLNVIVGLCVGHDSLFIKYSEAPVTTLITKDRVLGHNPAAALYASGFYYRRLLQEGDL” the entry was “not soluble”; with “MKGEGVIVGILNKNFSLSKGDLDVVSLGEILVDMISTEEVNSLSQSREYTRHFGGSPANIAVNLSRLGKKVALISRLGADAFGNYLLDVLKGEQIITDGIQQDKERRTTIVYVSKSTRTPDWLPYREADMYLQEDDIIFELIKRSKVFHLSTFILSRKPARDTAIKAFNYAREQGKIVCFDPCYRKVLWPEGDDGAGVVEEIISRADFVKPSLDDARHLFGPDSPENYVKRYLELGVKAVILTLGEEGVIASDGEEIIRIPAFSEDAVDVTGAGDAFWSGFICGLLDGYTVKRSIKLGNGVAAFKIRGVGALSPVPSKEDIIKEYNI”, “soluble”.

With “MDQLWANRAASAEAAITERHLKKLWGLPGTQLGVVAWPPARKYTLFGTWHYWWQAHLLDCLVDAQVRDPQPERTTRIERQLRAHRLRNNLSWVNDYYDDMAWLALAIERAGRLAGVEKPTALRKLCDQFVTAWVPEDGGGIPWRKQDQFFNAPANGPAGIFLARYDDRLRRAQQMADWIDETLIDPDTHLVFDGIKAGSLVRAQYTYCQGVVLGLEVELAVRTQDPRHAPRVRRLVAAVDKEMTTDGVIKGAGGGDGGLFNGILARYLALVATTLPGETPEDIAARDTARTIVLKSARSAWDHRQTVDGLPLFSAFWDRNAEIPTAGGKEAEFVEGAVNASSVPERDLSVQLAGWMLMEAAHSVDSVDAEDAAGDQNGAGDGEVGHDENEDEELEHHHHHH”, the “soluble on expression in E. coli” value is reported as “soluble”. The same measure for “MVADNSEKSTKSVANGSLISTVSSKDDLPNAIIVTQVPEDVFDNKQDKANFSSLFTQIEKDIHFDFLRSFRRVRVIFSSPENATAAKLIVQGFSFKGHELKAFFAQRIYMSANSQMLSPPPLEKQFLISPPCSPPVGWEQTKDMPPVVCNFDLMARLASFAIDEKYEVHNGDELTPAIIVHPCETPIDVPSAIEMPRTPRPSSPCEQ”: “not soluble”; for “KMAHIGSWKWDIVTGELYWSDELYLIFGLDPQEFRPAYNSFFNYIHPGDRDFVDNAIKKALNGEQLYDNDHRIISADGEERIVHSHGEVIFDEKNTPVRMRGTLQDIT”: “not soluble”; for “AHHHHHHGSIRASKRALSVEYAIRDVVLPARELEKKGIKVIRLNIGDPVKFDFQPPEHMKEAYCKAIKEGHNYYGDSEGLPELRKAIVEREKRKNGVDITPDDVRVTAAVTEALQLIFGALLDPGDEILVPGPSYPPYTGLVKFYGGKPVEYRTIEEEDWQPDIDDIRKKITDRTKAIAVINPNNPTGALYDKKTLEEILNIAGEYEIPVISDEIYDLMTYEGEHISPGSLTKDVPVIVMNGLSKVYFATGWRLGYMYFVDPENKLSEVREAIDRLARIRLCPNTPAQFAAIAGLTGPMDYLKEYMKKLKERRDYIYKRLNEIPGISTTKPQGAFYIFPKIEVGPWKNDKEFVLDVLHNAHVLFVHGSGFGEYGAGHFRAVFLPPIEILEEAMDRFEKFMKERLKE”: “soluble”.

Regarding “MNMAEVSKNQVEKALETVIYPGSGKNIVALGMVSEIFIADAKAYFSITVPADKASEMEPLRLAAERAAKSVEGIAGAVVALTADRKPGQQQPAPAGPTPARPAAATGRPAAAPGRPTPQPGSSKVGVPGVRAIIAVASGKGGVGKSTTAVNLALGLQALGLKVGMLDADIYGPSLPRLLKISGRPKQQEDRIILPMENYGLKVMSMGFLVDEEAAMIWRGPMVQSALMQMLREVAWGELDVLVLDMPPGTGDAQLTIAQQVPLAGAVIVSTPQDLALLDARKGITMFRKVEVPLLGVIENMSYFIAPDTGARYDIFGHGGAKAEAERIGVPFLGEVPLTISIREMSDAGTPVVVAEPDGPQAAIYREIAEKVWARMGADERKAAPKIVFELEHHHHHH”, the “soluble on expression in E. coli” value was “not soluble”. With “MGSDKIHHHHHHMSTNLRRIQKIKGGSYIVSLPSDWVRENGLDVSREVEVFESSGIIKIRPKKDFNFERIIDFTDEETAEYLTSVYYMQGMTKITIQSKDVISRDVKDKIKMLQLELPGLNLKEESFNSITFEVDEEILKVQDSFFDFSNKALSILKDVTKIIETPREDMKQDLTSRCLALNSDYFKLIRSIALTVQRDDKYKLDVPVKDIILYAVASRDLGRFITHTRLLIGNIKQEDMKMRDQVLLLINTMENIITMFKTEDINMASRIRKNAHEILESVKSTSEANKELERMTGYALALMDDAVHKAVHL” the entry was “not soluble”. On to “MNQKDTRKETLEFNKLQKRLRRNVGNAITDYNMIEEGDVVMACISGGKDSFAMLDILLNLQKAAPIKFEVVAVNLDQKQPGFPEHILPEYFETLNIPYYIVDKDTYSVVKEKVPEGKTTCGLCSRLRRGTLYSFAEKIGATKLALGHHMDDIVETMFLNMFHGSRLKAMPPKLRSDDGRNVVIRPLTYCREKDLIKYAEHKDFPIIPCNLCGSQENLQRQAIKAMLIDWDKKTPGRVEAIFKSIQNVSPSQLADRELFDFVNLPLDRDGSREEYEFSEAVVSSTNIDESLFIDVTNI”, for which the “soluble on expression in E. coli” value is “soluble”. The same measure for “MGSDKIHHHHHHMPLDVDHLRIPALPQLFMELQNALGQPHVSYERIAAIVSKDPRLTASLLKLVNSPHFGFSTPIETVSRAVAASGIRRVSALALGTFVLGLYRERPPLVVDIQGFWLHSVGCGIAARLLAQRLGRSDPERFFVAGLLHDMGWLALCSAAPDRAERIVRRIQSTGCSCEEAERLELGTTHAELGATVLKTWNLPAFLIDVVRSHHAPLATVGDNPPVDGALEVHIADAVVKGMGIGGALDARIAPLDLDAVDTLGLSGHDIAAMTNGLVEQSQALSRLLQGD”: “not soluble”; for “GSMAGEDVGAPPDHLWVHQEGIYRDEYQRTWVAVVEEETSFLRARVQQIQVPLGDAARPSHLLTSQLPLMWQLYPEERYMDNNSRLWQIQHHLMVRGVQELLLKLLPDDRSPGIHRD”: “soluble”. With “MMEDGAEGEIGDMLSMCNKHPFFDDDDSERFVILYKICTVFDEPVEGKQPSSAVIVYEELAKSGGYCCRPSKMEESYVKVDQVVQEMAKITSKCAIHLSSHALKNTIQIVRTAFSGEYTQNDKDGNVPEGNEVKFDGDETVMKTTVNCEKLVEDINEFMEEDRQMYGALEIQIMEESERNIDGYAYFSFLKFVPCGNIHLRIPPLEGSCTKEVINEVIETIMRNFWNYCGDS” the entry was “not soluble”.
